Assay: soluble on expression in E. coli; label from the status in PepcDB or PDB records
With “MSLSRLILIESNKNTRGTPWISIPVRNGVFEYDFYTDHEKAYELICWDDLLNGCWYPVTFFAENGTVSFTISAIDARPPYRIETLNSLTTALRLFEAEGKDKFSFDELNARRDTLEKYGRFESEAMQALWKKFDQVKDNPEERNKLFRERDRLEESGEAFTKEAKALIKEREQLFRKKVIWETEQASQHPSLVGLFILKMKVENARKDEDVTPYLEAFQKVYASRYPEHPYTREMQMFIDNNQPKTGNRFIDFSAPDLNGNMVQLSEQIRGKVALIDLWASWCGPCRTTSKQLIPIYEKYKDRGFTVIGVAREQNSDIRMREAIRKDGYPWLNLIELNDVQQIWSKYRIPNAAGGTFLVNAQGIILAVNPTAEEVERILQKELEGHHHHHH” the “soluble on expression in E. coli” value was “not soluble”.
For “MSLSSLDAVLSQDLIVADGPAVEVGDSLEVAYTGWLFQNHVLGQVFDSTANKDKLLRLKLGSGKVIKGWEDGMLGMKKGGKRLLIVPPACAVGSEGVIGWTQATDSILVFEVEVRRVKFAREGHHHHHH”, the “soluble on expression in E. coli” value was “not soluble”.
With “MSLSSPTADVEKLRRIIEVARGDRRADFVVKNAQIVDLVNEEIFEGDIAVAEGFIAGIGSYSGVEECEASNLVAVPGLIDAHTHIEMSMLTVSEFARLVVPRGTTGVVADPHEIANVLGKDGVMLMLEEARSTPLRFYCMVPSCVPSSPLETSGARIGVEEIRELLEEEEVLGLAEMMNFPGVVSADREVLEKIVLAGIVDGHAPGLRGKKLNAYIAAGASSDHETTSFEEGKEKLRLGMWVMIREGSAARNLVALKGLTGNRHTMLVTDGDRSVKDIIEEGYLDHVFRRAIEEGIDEIKALQMLTLNPAEYFGINAGLIAPSRLADIVLLKNLRKFEVRDVFVGGRRPEFKRFNHPEWAKKTVKARKITPESIQLKTGRVRVIEVYDGEIVTGEAIEEVQGVDVERDILKAVVVERHIRSGRVGKAYVRGFGLKRGAIAQSIAHDAHNIVCVGVDDGSICAAVNRVIELQGGIVVADAEVRAELPLPIAGIMSDERAERVLERLSEIEEEVRKLGCRLKSPVITLSFIALPVIPKLKLTDLGLVDVEAFRVVDLQADEGHHHHHH” the “soluble on expression in E. coli” value was “not soluble”.
For “MSLSSSCIEEVSVPDDNWYRIANELLSRADITINGSAPSDIRVKNPDFFKRVLQEGSLGLGESYMDGWWECERLDIFFSKVLRAGLENQLPHHVKDTLRILGARLINLQSKKRAWIVGKEHYDLGNDLFSRMLDPYMQYSCAYWKDADTLEAAQQAKLKLICEKLQLQPGMRVLDIGCGWGGLSQYMATHYGVSVVGVTISAEQQKMAQTRCEGLDVSILLEDYRDLNDQFDRIVSVGMFEHVGPKNYNTYFEVVDRNLKPDGLFLLHTIGSKKTDHNVDPWINKYIFPNGCLPSVRQIAEASESHFVMEDWHNFGADYDTTLMAWHERFINAWPEIAGNYNERFKRMFSYYLNACAGAFRARDIQLWQVVFTRGVENGLRVPREGHHHHHH”, the “soluble on expression in E. coli” value was “soluble”.
With “MSLSTFPTALAVAVSVPSSLTPQDFSWRKFKLKRNVKISRNFEFAISCSGDRAASIGFDVPFPKDYTELLQQVFILFAFSPLKIGGWGSRNRGGITREIKAKEATELALKDNRQLMEIEFPTAGLGSVPGDGEGGIEMTGSIQLIREFCDLLVIPEKATKTRIFFPEANEVKFARQSIFGGASFKLDYLTKPSFFEDFGFTEKVKMADRVKPEDELFIVAYPYFNVNEMLVVEELYQAAVLNTSRKLIIFNGELDRIRSDYPPFFYPKLAALSKTLFPKMETVYYIHNFKGRNGGVLFRCYPGPWKVFRRVGSTNICLHQQESMPSLKEVALDILPSAEGHHHHHH” the “soluble on expression in E. coli” value was “not soluble”.
With “MSLSTLLISAPHLAFKIIATGVSLPPDRVESSTLDRKLNKPVGYVEQRSGVRHRYHATADANQAELAAAALHDALERHGINPSSIDLLISASAIAYQALPCTAVHILKIAGLAPRIAGFDINSSCVSFISALQVAAGLLNAGTYQRIAIVSADLASRGIDWNDEESSLIFGDGAACAIVERGDGRSGILASLVEMYPTGSELCEIRAGGTRCNPRSGMDNDDFLFHMQGKRLFRQASGIIEDYFQRLLEKSGLTLADIATVIPHQASHLSLAHMRKRLHVPTDVLVDIYRDHGNQVAASIPTALHAAVMSGRFSPGKPVMLIGTAAGLTLAGMVLLEGHHHHHH” the “soluble on expression in E. coli” value was “not soluble”.
With “MSLSTLQAELASAKTEYEAKELEIRNLFSEKNTQERRLQTLVAQVAAKRKELSNALSQSSAETLTSELQSLESQYQACQTLINNISNYLTVKAGLDKKNASELVERAQKNLLNFIYNSIKSELKVLTDEQVELMKDFVVIEKLIRSELSDSVRQSYFLGCVFDELYGQLKGSDFTSHKEKMLKKYDAESSIG” the “soluble on expression in E. coli” value was “soluble”.
With “MSLSTLQDLEKTLWATADKMRANMDPAEYKHIVLGLIFLKYISDSFAGRRAELERKFSDAGDDYYLGGDDPTYLASELEERDYYKEVNVFWVPEPARWESLRAAAKQVDIGKRIDDALADIEAENPQLKNILDKRYARAQLPDGKLGELVDMISIIGFSSDANKARDLLGQVYEYFLGQFASAEGKRGGQFYTPASIVKTLVAVLNPHHGKVYDPCCGSGGMFVQSEKFIEAHGGKLGDVSIYGQESNPTTWRLAAMNLAIRGMDFNLGKEPADSFIRNQHSDLRADFVLANPPFNISDWWHGSLDGDSRWVYGTPPQGNANYAWLQHMLFHLKSSGRAGIVLANGSMSSSQNSEGDIRRAMVEADVVEVMVALPGQLFFNTQIPACLWFLAKQKNKRPGEVLFIDARKLGTNISRVQIELLDSDIESIAQTVANWRGVPLEVDGEIAEYADVAGFCRSVPLAEIAEHGHVLTPGRYVGAEAVEEGHHHHHH” the “soluble on expression in E. coli” value was “not soluble”.
In the case of “MSLSTNLITTGIGTEQLEQLLSEYFPTYQISRIDRDSTGRKGALEHHLNAIQTGKSQILIGTQMLAKGHHFPNVTLVALVNVDSALFSTDFRAEERLAQLYLQVAGRAGRAEKTGEVVLQTHYPDHPLLKCLLKDGYNAFAEEALKMRQVMALPPFTAQVLFRATGKQSDKVEHLLQNLTAYFQHKSVELGIEGIQISPPFSAIVAKKAGYYRWLLLIQHQSRSAIQQLLNVFDQEKSALNLPANIRLSLDVDPYDMSEGHHHHHH”, the “soluble on expression in E. coli” value is reported as “not soluble”.
In the case of “MSLSTPPRAFSLVETGEALTRGDEPSPTRSAVLTRLSHSHMRFGTFQRLAYLDRRDLMVQLVDHVIESYFPDLADESDRPAVLMRAVVSASARLLSRWMSAGFVHGVLNTDNMVVTGESFDYGPWRFLPRNDPNFVAAYFDHAGLYSFGRQPEAVFWNLQQLAGCLSLVTDQAALLAALNSFSDLYRAALRGAMLDRLGLKSRGAEADIALVNTAFRALAEGGETLRWEPFFFDWFGGAASEERALRGPRAGLYAGEAFLDLRRALADFDPDRPERLAHPAFARPEPEELIIDEVEALWSPIADADDWGPLNAKLARIDAAREAYALGQAQIEGHHHHHH”, the “soluble on expression in E. coli” value is reported as “soluble”.
For “MSLSWDQVWIDVNVATMDPSISAPYGAITNAAIAVKDGKIAWLGPRSELPAFDVLSIPVYRGKGGWITPGLIDAHTHLVFAGNRANEFELRLKGATYEEIARAGGGIISTVNACREADEAELFDLGRQRLNALAKEGVTTVEIKSGYGLDTETELKILRVARELGQHHHVDVKTTFLGAHAVPPEFKDNSDGYVDLIINKMLPAVIAENLADAVDVFCENIAFNLEQTERVLSTAKAAGLQVKLHAEQLSNMGGSELAARLGAKSVDHIEYLDEAGVKALSESGTCAVLLPGAFYFLRETQKPPIDLLRQYGVPMVLASDFNPGSSPICSTLLMLNMGCTLFRLTPEEALAGLTLNAAKALGIEDNVGSLVVGKQADFCLWDIATPAQLAYSYGVNPCKDVVKNGKLIHQEGHHHHHH”, the “soluble on expression in E. coli” value was “soluble”.
For “MSLTAPLPYTRAANLPALLRERILILDGAMGTMIQRYKLTEAQYRGERFASHPVDVKGNNELLLLTRPEVIREIHEQYLAAGADLIETNTFGATTVAQEDYKMAELAYEMNVVAARLAREACDKYSTPDKPRFVAGAFGPTPKTASISPDVNDPGARNISFDQLRDAYYEQGKALLEGGADVFLVETIFDTLNAKAALFAIDQLFEDSGERVPVMISGTVTDASGRILSGQTVEAFWNSLRHAKPITFGLNCALGAALMRPYIAELAKICDTAVSCYPNAGLPNPMSDTGFDETPEVTSSLVDEFAAAGLVNLVGGCCGTTPEHIRAIAERVAQRKPRAWPGQYREAAEGHHHHHH”, the “soluble on expression in E. coli” value was “soluble”.
In the case of “MSLTAPLRAGQMNFYDEPYNPVLNLHIQPSVKDENQRSTWPIIDTSNTSTQIARAHFEKHPPNNLRKSNFFHFVIALYDRNSQPIEVERTQFAGFVEKEKEVDGQDTRNGIHYRLSLMFQNGIRSEHDLFVRLIDSSTKQAITYEGQDKNPEMCRVLLTHEVMCSRCCEKKSCGNRNETPSDPVIIDRFFLKFFLKCNQNCLKNAGNPRDMRRFQVVLCSSARIDGPLLAVSDNMFVHNNSKHGRRTKRTDASDDSEYSESAELPSSVPVIKALFPSEGWIQGGTQVVLIGENFFEGLQVAFGTASPNWGESVQLISPHAIRVTTPPKHSAGPVDVTLQYKSKTYSRGTPLRFSYITLAEPGIEYGFQRLQKLLPKYPGDPERLPKDQILKRAAELAEALYNRTSTESLSSYYHTQFDATSDYAARTHTSPRSTLPYGAGPPALSSAVYQTSYPTVNATPAANFLNTQTGFATFGAVNPFAATLQSSSRLS”, the “soluble on expression in E. coli” value is reported as “not soluble”.
In the case of “MSLTAPRILMTRPDHYGVTYAINPWMTPESWAGNQTVALAEAATQWQALADALGAVGFALEILPGQPGLPDMVFPANAAIVFDGIALVARFRHPERQGEEAHFHAAFEALRQRGLLSAVHSLPEGVFQEGAGDCLWDASRQLFFAAHGPRSSRASIEVIAETFGQEIVRLELVDPRFYHLDTCFCVLPGGEVLTFTPALSTASLERLRAVVAPEMLIEADFAAASAFSINAVAHGREVVMANPPASLRALLEERGYHVHGLELGRFMQSGGGSYCMTLRLDRRARAEGHHHHHH”, the “soluble on expression in E. coli” value is reported as “soluble”.
In the case of “MSLTATTDGSTGASLRPLAASASDTDITIPAAAAGVPEAAARATRRATDFLLAKQDAEGWWKGDLETNVTMDAEDLLLRQFLGIQDEETTRAAALFIRGEQREDGTWATFYGGPGELSTTIEAYVALRLAGDSPEAPHMARAAEWIRSRGGIASARVFTRIWLALFGWWKWDDLPELPPELIYFPTWVPLNIYDFGCWARQTIVPLTIVSAKRPVRPAPFPLDELHTDPARPNPPRPLAPVASWDGAFQRIDKALHAYRKVAPRRLRRAAMNSAARWIIERQENDGCWGGIQPPAVYSVIALYLLGYDLEHPVMRAGLESLDRFAVWREDGARMIEACQSPVWDTCLATIALADAGVPEDHPQLVKASDWMLGEQIVRPGDWSVKRPGLPPGGWAFEFHNDNYPDIDDTAEVVLALRRVRHHDPERVEKAIGRGVRWNLGMQSKNGAWGAFDVDNTSAFPNRLPFCDFGEVIDPPSADVTAHVVEMLAVEGLAHDPRTRRGIQWLLDAQETDGSWFGRWGVNYVYGTGSVIPALTAAGLPTSHPAIRRAVRWLESVQNEDGGWGEDLRSYRYVREWSGRGASTASQTGWALMALLAAGERDSKAVERGVAWLAATQREDGSWDEPYFTGTGFPWDFSINYNLYRQVFPLTALGRYVHGEPFAKKPRAADAPAEAAPAEVKGSEGHHHHHH”, the “soluble on expression in E. coli” value is reported as “soluble”.
In the case of “MSLTDLIDIHCHLLPAVDDGSKSIEETLSLIDLLEEIGVKQHILTPHIMEEYPSNDAIFLRARFEELLAAITPDKASRLRLAAEYMLDVAFLDRLAEPLLTLGDRYILVETSYMAPPIGLMGLLADLRFKGLSPVLAHPERYLYMEEKDYVAIKKQGVMFQLNLFSLFGAYNSSASEKAYALLEAGYYDLIGTDIHHLQPIARLLSEASLPPDLEGKIKSLVENNTRLFSEGHHHHHH”, the “soluble on expression in E. coli” value is reported as “not soluble”.
For “MSLTDRTIGEAAELLGVTTRTLRHWDSIGLLQPSWRTTTDYRLYTEDDVERALQILIYRAAGIGLKDIAEVLDQPDSANQHLRRQRELLVEQIGQLHRMVRAVDEILGKDAISVKEKIEIFGEDLPKYQEEAFQRWGDTPEWKESQKIQEKMTKEDFQRAKDEHEGFVEKLIDASLRGIAPGSAEGNELALAHRASIGQWYTVSANKQVILARMYVEDERFNETYKGHASYLLTLIEALAQVEGVDLENEGHHHHHH”, the “soluble on expression in E. coli” value was “not soluble”.

— the DeepSol protein solubility set
